Reference: US9512220 (dated 2016)

Key:
[1] = biological target: T1, Angiopoietin 2 (UniProt O15123); experiment: competition, blocking Tie-2
T1 chain: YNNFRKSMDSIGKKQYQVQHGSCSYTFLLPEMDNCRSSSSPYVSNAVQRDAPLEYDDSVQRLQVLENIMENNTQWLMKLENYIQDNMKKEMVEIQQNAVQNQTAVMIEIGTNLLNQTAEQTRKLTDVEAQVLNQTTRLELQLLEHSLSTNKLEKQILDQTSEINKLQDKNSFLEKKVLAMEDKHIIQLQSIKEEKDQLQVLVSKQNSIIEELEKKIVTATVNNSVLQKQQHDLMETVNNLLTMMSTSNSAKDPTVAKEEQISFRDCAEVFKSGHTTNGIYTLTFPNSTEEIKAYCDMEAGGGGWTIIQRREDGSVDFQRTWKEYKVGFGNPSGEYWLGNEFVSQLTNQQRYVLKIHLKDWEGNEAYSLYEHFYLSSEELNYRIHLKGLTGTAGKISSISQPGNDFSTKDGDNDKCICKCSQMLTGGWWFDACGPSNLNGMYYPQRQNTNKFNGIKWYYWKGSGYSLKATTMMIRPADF

[2] = biological target: T2, Angiopoietin 1 (UniProt Q15389); experiment: competition, blocking Tie-2
T2 chain: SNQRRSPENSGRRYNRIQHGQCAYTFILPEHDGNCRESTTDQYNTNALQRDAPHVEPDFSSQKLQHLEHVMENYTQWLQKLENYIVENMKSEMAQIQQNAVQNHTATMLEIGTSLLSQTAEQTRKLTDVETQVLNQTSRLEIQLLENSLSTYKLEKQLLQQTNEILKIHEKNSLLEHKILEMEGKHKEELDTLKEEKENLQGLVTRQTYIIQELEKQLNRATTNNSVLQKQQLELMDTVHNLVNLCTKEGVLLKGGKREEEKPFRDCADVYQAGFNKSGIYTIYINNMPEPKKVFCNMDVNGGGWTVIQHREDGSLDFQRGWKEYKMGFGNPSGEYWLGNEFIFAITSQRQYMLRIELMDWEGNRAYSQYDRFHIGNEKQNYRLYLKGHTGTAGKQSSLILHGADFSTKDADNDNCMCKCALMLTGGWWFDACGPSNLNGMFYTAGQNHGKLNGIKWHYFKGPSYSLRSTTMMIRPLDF

Binder	IC50 [1] [nM]	IC50 [2] [nM]
HC2/LC2 (antibody, V domains shown) VH: EVQLLESGGGLVQPGGSLRLSCAASGFTFSNYAMSWVRQAPGKGLEWVSVISPGSGNTYYADSVKGRFTISRDNSKNTLYLQMNSLRAEDTAVYYCAKGALKCRHRSCSSYNAMDVWGQGTLVTVSS VL: QSVLTQPPSASGTPGQRVTISCTGSSSNIGNNDVSWYQQLPGTAPKLLIYDNNHRPSGVPDRFSGSKSGTSASLAISGLRSEDEADYYCGTWDASLNGYVFGGGTKLTVL	0.06	0.23
HC10/LC10 (antibody, V domains shown) VH: EVQLVESGGGLVQPGGSLRLSCAASGFTFSNYAMSWVRQAPGKGLEWVSWIYPDNGNTYYADSVKGRFTISRDNSKNTLYLQMNSLRAEDTAVYYCAKYSLDKYTPWPYSYYGMDVWGQGTLVTVSS VL: QSVLTQPPSASGTPGQRVTISCTGSSSNIGNNAVTWYQQLPGTAPKLLIYDDSHRPSGAPDRFSGSKSGTSASLAISGLRSEDEADYYCGTWDASLSAYVFGGGTKLTVL	1.22	0.19
HC22/LC22 (antibody, V domains shown) VH: EVQLVQSGAEVKKPGASVKVSCKASGGTFSSYAISWVRQAPGQGLEWMGGIIPIFGTANYAQKFQGRVTITADESTSTAYMELSSLRSEDTAVYYCARGGSGRFDYWGQGTLVTVSS VL: QSALTQPASVSGSPGESIIISCTGTSSDVGAYNYVSWYQQHLGKAPKLMIYDVSQRPSGVSDRFSGSKSGNTASLTISGLQAEDEADYYCSSFTGDSVIFGGGTKLTVL	0.03	0.24
HC8/LC8 (antibody, V domains shown) VH: EVQLLESGGGLVQPGGSLRLSCAASGFTFSNYSMSWVRQAPGKGLEWVSAISPGNGNKYYADSVKGRFTISRDNSKNTLYLQMNSLRAEDTAVYYCAKGLSSLLLVGFDYWGQGTLVTVSS VL: QSVLTQPPSASGTPGQRVTISCSGSSSNIGNNDVSWYQQLPGTAPKLLIYSDSQRPSGVPDRFSGSKSGTSASLAISGLRSEDEADYYCGSWDASLNGYVFGGGTKLTVL	0.2	0.21
HC14/LC14 (antibody, V domains shown) VH: EVQLLESGGGLVQPGGSLGLSCAASGFTLSNYDMSWVRQAPGKGLEWVSWISPDSSSTYYADSVKGRFTISRDNSKNTLYLQMNSLRAEDTAVYYCARSVMPFDYWGQGTLVTVSS VL: QSVLTQPPSASGTPGQRVTISCSGSSSNIGSNAVYWYQQLPGTAPKLLIYDDSKRPSGVPDRFSGSKSGTSASLAIGGLRSEDEADYYCGAWDDSLSAYVFGGGTKLTVL	0.08	0.74
HC18/LC18 (antibody, V domains shown) VH: EVQLLESGGGLVQPGGSLRLSCAASGFTFSDYDMSWVRQAPGKGLEWVSWISPDDGSIYYADSVKGRFTISRDNSKNTLYLQMNSLRAEDTAVYYCARSVLPFDYWGQGTLVTVSS VL: QSVLTQPPSASGTPGQRVTISCSGSSSNIGSNAVYWYQQLPGTAPKLLIYDDSKRPSGVPDRFSGSKSGTSASLAISGFRSEDEADYYCGSWDASLNAYVFGGGTKLTVL	2.85	0.24
HC4/LC4 (antibody, V domains shown) VH: EVQLLESGGGLVQPGGSLRLSCAASGFTFSNYAMSWVRQAPGKGLEWVSAISHGGSSKYYADSVKGRFTISRDNSKNTLYLQMNSLRAEDTAVYYCARDRTASLLDGFDYWGQGTLVTVSS VL: QSVLTQPPSASGTPGQRVTISCSGSSSNIGNNYVNWYQQLPGTAPKLLIYADSNRPSGVPDRFSGSKSGTSASLAISGLRSEDEADYYCGTWDASLSGYVFGGGTKLTVL	1.35	0.26
HC12/LC12 (antibody, V domains shown) VH: EVQLLESGGGLVQPGGSLRLSCAASGFTFSNYAMSWVRQAPGKGLEWVSVISPGSGNTYYADSVKGRFTISRDNSKNTLYLQMNSLRAEDTAVYYCAKGALKCRHRSCSSYNAMDVWGQGTLVTVSS VL: QSVLTQPPSASGTPGQRVTISCTGSSSNIGNNDVSWYQQLPGTAPKLLIYDNNHRPSGVPDRFSGSKSGTSASLAISGLRSEDEADYYCGTWDASLNGYVFGGGTKLTVL	0.04	0.38
HC16/LC16 (antibody, V domains shown) VH: EVQLLESGGGLVQPGGSLRLSCAASGFTFSDYYMSWVRQAPGKGLEWVSSISYDDGSRKYYADSGKRSVTISRDNSKNTLYLQMNSLRAEDTAVYYCARDRSTLRLDSFDYWGQGTLVTVSS VL: QSVLTQPPSASGTPGRRVTISCSGSSPNIGNNTVNWYQQLPGTAPKLLIYSDSHRPSGVPDRFSGSKSGTSASLAISGLRSEDEADYYCGAWDYSLNAYVFGGGTKLTVL	0.32	0.26
